Reference: the nanobody polyreactivity screen of Harvey et al. (2022)

Assay: yeast display, Sf9 membrane polyspecificity reagent, FACS + sequencing; frameworks hold sequencing errors
Summary of the method: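 Sorting gates, low and high (top ~1%), were placed on anti-HA fluorescence to track expression and on streptavidin fluorescence to track reagent binding. A clone's polyreactivity label is taken from the gate it came out of. The reagent was 10% biotinylated, detergent-solubilized Sf9 membrane, applied for 1 hour at 4 °C to galactose-induced yeast display cells.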

Row | Sequence | polyreactivity (PSR sort gate)
1 | QVQLVESGGGLVQAGGSLRLSCAASGITLWQSAKGWYRQAPGKERELVAGITDTGDSTYYADSVKGRFTISRDNAKNTVYLQMNSLKPEDTAVYYCAVPRSALLRAPYELYSWGQGTQVTVSS | low polyreactivity
2 | QVQLVESGGGLVQAGGSLRLSCAASGITLYKYTMGWYRQAPGKERELVAAISGGGSTTYADSVKGRFTISRDNAKNTVYLQMNSLKPEDTAVYYCNVPGGKPSYYEEYGYWGQGTQVTVSS | low polyreactivity
3 | QVQLVESGGGLVQAGGSLRLSCAASGITLYRYVMGWYRQAPGKERELVADISGRGTSTYYADSVKGRFTISRDNAKNTVYLQMNSLKPEDTAVYYSNSEYTKTGALVIPYTYYYAEDYWGQGTQVTVSS | low polyreactivity
4 | QVQLVESGGGLVQAGGSLRLSCAASGITLYSYAMGWYRPAPGKERELVAAISWDGGGTYYADSVKGRFTISRDNAKNTVYLQMNSLKPEDTAVYYCAADTQYTDGDSWGQGTQVTVSS | high polyreactivity
5 | QVQLVESGGGLVQAGGSLRLSCAASGITSDFNAMGWYRQAPGKERELVAITWNGGSTYYADSVKGRFTISRDNAKNTVYLQMNSLKPEDSAVYYCAARYRRYNRIYDYWGQGTQVTVSS | high polyreactivity
6 | QVQLVESGGGLVQAGGSLRLSCAASGITSRLYAMGWYRQAPGKERELVAAINSIDGSTNYADSVKGRFTISRDNAKNTVYLQMNSLKPEDTAVYYCNKRYGYTGFSPRYDYWGQGTQVTVSS | low polyreactivity
7 | QVQLVESGGGLVQAGGSLRLSCAASGITSRPNAMGWYRQAPGKERELVAAISGSGGRTYYADSVKGRFTISRDNAKNTVYLQMNSLKPEDTAVYYCNAVGGGRWYEYWGLGTQVTVSS | high polyreactivity
8 | QVQLVESGGGLVQAGGSLRLSCAASGITYRWKAMGWYRQAPGKERELVAAITTRGGGTYYAVSVKGRFTISRDNAKNTVYLQMISLKPEDTAVYYCAAKKSRYPYNYWGQGTQVTVSS | high polyreactivity
9 | QVQLVESGGGLVQAGGSLRLSCAASGITYRYAMGCYRQAPGKERELVAAITSSGASTYYADSVKGRFTISRDNAKNTVYLQMNSLKPEDTAVYYCATPLRKVYGGYEYWGQGTQVTVSS | low polyreactivity
10 | QVQLVESGGGLVQAGGSLRLSCAASGITYRYNAMGWYRQAPGKEREMVAAISTSGGNTYYADSVKGRFTISRDNAKYTVYLQLNSLKPEDTAVYYCAVDGEYWYDYDGDYWGQGTQVTVSS | low polyreactivity
11 | QVQLVESGGGLVQAGGSLRLSCAASGIVRQNPMGWYRQAPGKERELVACISQSGGSTYYADSVKGRFTISRDNAKNTVYLQMNSLKPEDTAVYYCAVVSIWGYDYWGEGTQVTVSS | low polyreactivity
12 | QVQLVESGGGLVQAGGSLRLSCAASGIYGFYAMGWYRQPPRKQRELVAAISSVTSTYYADSVKGRFTISRDNAKNTVYLQMNSLKPEDTAVYYCNAYLYSGGLSYDYWGQGTQVTVSS | low polyreactivity
13 | QVQLVESGGGLVQAGGSLRLSCAASGIYYNAMGWYRQAPGKERELVAAITTGDRTNYADSVKGRFTISRDNAKNTVYLQMYSLIPEDTAVYYCKAVVERLSSTARDFAYDYWGQGTQVNVSS | low polyreactivity
14 | QVQLVESGGGLVQAGGSLRLSCAASGLIFARNAMGWYRQAPGKERELVAAITRRGTSTYYADSVKGRFTISRDNAKNTVYLQMNSLKPEDTAVYYCAARGGGGQRYDYWGQGTQVTVSS | high polyreactivity
15 | QVQLVESGGGLVQAGGSLRLSCAASGLIFARNAMGWYRQAPGKETELVAAISKRGGSTYYADSVKGRFTISRDNAKNTVYLQMNSLKPDDTAVYYCNARYFRWWDMGYWGQGTQVNVSS | high polyreactivity
16 | QVQLVESGGGLVQAGGSLRLSCAASGLIFARYATGWYRQAPGKERELVAAITDTGDITYSADSVKGRFTISRDNAKNTVYLQMNSLKPEDTGVYYCNADGVESVGGVETLYWRGGYWGQGTQVTVSS | low polyreactivity

Row | Sequence | polyreactivity (PSR sort gate)
17 | QVQLVESGGGLVQAGGSLRLSCAASGLIFARYVMGWYRHAPGKERELVADIDKGGGSTYYADSVKGRFTISRDNAKNTDSLQMNSLKPEDSSVYYCIADFDGWWWDDYRGQGTQVTVSS | high polyreactivity
18 | QVQLVESGGGLVQAGGSLRLSCAASGLIFAYNAMGWYRQAPGKERELVAAITGGGDGTYYADSVKGRFTISRDNAKNTVYLQMNSLKPEDTAVYYCAADFGNSPYIKVYYYWGQGTQVTVSS | low polyreactivity
19 | QVQLVESGGGLVQAGGSLRLSCAASGLIFAYNTMGWYRQAPGKERELVAGITSSGSTYYADSVKGRFTISRDNAKNTVYLQMNSLKPEDTAVYYCAAEWDDGRSWYWYYLVGFEYWGQGTQVTVSS | high polyreactivity
20 | QVQLVESGGGLVQAGGSLRLSCAASGLIFDRNAMGWYRQAPGKERELVAAITYSGSRTYYADSVKGRFTISRDNAKNTVYLQMNSLKPEDTAVYYCAARHRYSAGTEYNYWGQGTQVTVSS | high polyreactivity
21 | QVQLVESGGGLVQAGGSLRLSCAASGLIFDSYAMGWYRQAPGKERELVAAITYTGGSTYYADSVKGRFTISRDNAKNTVYLQMNSLKPEDTAVYYCAAVTRYAGRIRYGYWGQGTQVTVSS | high polyreactivity
22 | QVQLVESGGGLVQAGGSLRLSCAASGLIFDSYVMGWYRQAPGKERELVAVISGSGGSTYYADSVKGRFTISRDNAKNTVYLQMNSLKPEDTAVYYCAAQYSAGQYYGYGYWGQGTQVTVSS | high polyreactivity
23 | QVQLVESGGGLVQAGGSLRLSCAASGLIFEPYVMGWYRQAPGKERELVASITWSAGSTYYADSVKGRFTISRDNAKNTVYLQMNSLKPDDTAVYYCAARHGYGWGFSGVPAQGYEYWGQGTQVTVSS | low polyreactivity
24 | QVQLVESGGGLVQAGGSLRLSCAASGLIFFFYAMGWYRQAPGKERELVASISGGGITYYADSVKGRFTISRDNAKNTVYLQMNSLKPEDTAVYYCAARVLDWRGDIHDSEYWGQGTQVTVSS | low polyreactivity
25 | QVQLVESGGGLVQAGGSLRLSCAASGLIFFINDMGWYRQAPGKERELVAAITSGGSTYYADSVKGRFTISRDNAKNTVYLQMNSLKPEDTAVYYCAADSYDWYDYWGQGTQVTVSS | high polyreactivity
26 | QVQLVESGGGLVQAGGSLRLSCAASGLIFGGYAMGWYRQAPGKERELVAAISWDDGDTYYADSVKGRFTISRDNAKNTVYLQMNSLKPEDSAVYYCAAESLSGAHGYWGQGTQVTVSS | low polyreactivity
27 | QVQLVESGGGLVQAGGSLRLSCAASGLIFGPYAMGWYRQAPGKERELVAGISRGGSTYYADSVKGRFTISRDNAKNTVYLQMNSLKPEDTAVYYCNAYTYPPYYSKWVRYRYDYWGQGTQVTVSS | high polyreactivity
28 | QVQLVESGGGLVQAGGSLRLSCAASGLIFGTNAMGWYRQAPGKERELVAAISGSGGRTYYADSVKGRFTISRDNAKNTVYLQMNSLKPEDTAVYYCATAWYLGRYRRLGYWGQGTQVTVSS | high polyreactivity
29 | QVQLVESGGGLVQAGGSLRLSCAASGLIFGTNAMGWYRQAPGKERELVAYITSGGSTYADSVKGRFTISRDNAKNTVYLQMNSLKPEDTAVYYCAAYVFWAFYEYDYWGQGTQVTVSS | low polyreactivity
30 | QVQLVESGGGLVQAGGSLRLSCAASGLIFGWNARGWYRQAPGKERELVAAINSGGITNYADSVKGRFTISRDNAKNTVYFQMNWLKPEDTAVYYCAADVVQYGLDWYGEEYESWGQGTQVTVSS | low polyreactivity
31 | QVQLVESGGGLVQAGGSLRLSCAASGLIFGWYAMGWYRQAPGKERELVAAISWSGSRTNYADSVKGRFTISRDNAKNTVYLQMNSLKPEDTAVYYCAAGWGYSASRYGYWGQGTQVTVSS | high polyreactivity
